Laboratory results published in article PMC8861016.

Target: LRP6mcherry2 (UniProt O75581)
Assay: FRET or BRET; FRET-based FLIM (EGFP donor lifetime) on live HEK293T cells stably expressing CD44EGFP and LRP6mcherry2, induced with Wnt3a CM 1 h before analysis

UniProt O75581, sequence (O75581 20-1613): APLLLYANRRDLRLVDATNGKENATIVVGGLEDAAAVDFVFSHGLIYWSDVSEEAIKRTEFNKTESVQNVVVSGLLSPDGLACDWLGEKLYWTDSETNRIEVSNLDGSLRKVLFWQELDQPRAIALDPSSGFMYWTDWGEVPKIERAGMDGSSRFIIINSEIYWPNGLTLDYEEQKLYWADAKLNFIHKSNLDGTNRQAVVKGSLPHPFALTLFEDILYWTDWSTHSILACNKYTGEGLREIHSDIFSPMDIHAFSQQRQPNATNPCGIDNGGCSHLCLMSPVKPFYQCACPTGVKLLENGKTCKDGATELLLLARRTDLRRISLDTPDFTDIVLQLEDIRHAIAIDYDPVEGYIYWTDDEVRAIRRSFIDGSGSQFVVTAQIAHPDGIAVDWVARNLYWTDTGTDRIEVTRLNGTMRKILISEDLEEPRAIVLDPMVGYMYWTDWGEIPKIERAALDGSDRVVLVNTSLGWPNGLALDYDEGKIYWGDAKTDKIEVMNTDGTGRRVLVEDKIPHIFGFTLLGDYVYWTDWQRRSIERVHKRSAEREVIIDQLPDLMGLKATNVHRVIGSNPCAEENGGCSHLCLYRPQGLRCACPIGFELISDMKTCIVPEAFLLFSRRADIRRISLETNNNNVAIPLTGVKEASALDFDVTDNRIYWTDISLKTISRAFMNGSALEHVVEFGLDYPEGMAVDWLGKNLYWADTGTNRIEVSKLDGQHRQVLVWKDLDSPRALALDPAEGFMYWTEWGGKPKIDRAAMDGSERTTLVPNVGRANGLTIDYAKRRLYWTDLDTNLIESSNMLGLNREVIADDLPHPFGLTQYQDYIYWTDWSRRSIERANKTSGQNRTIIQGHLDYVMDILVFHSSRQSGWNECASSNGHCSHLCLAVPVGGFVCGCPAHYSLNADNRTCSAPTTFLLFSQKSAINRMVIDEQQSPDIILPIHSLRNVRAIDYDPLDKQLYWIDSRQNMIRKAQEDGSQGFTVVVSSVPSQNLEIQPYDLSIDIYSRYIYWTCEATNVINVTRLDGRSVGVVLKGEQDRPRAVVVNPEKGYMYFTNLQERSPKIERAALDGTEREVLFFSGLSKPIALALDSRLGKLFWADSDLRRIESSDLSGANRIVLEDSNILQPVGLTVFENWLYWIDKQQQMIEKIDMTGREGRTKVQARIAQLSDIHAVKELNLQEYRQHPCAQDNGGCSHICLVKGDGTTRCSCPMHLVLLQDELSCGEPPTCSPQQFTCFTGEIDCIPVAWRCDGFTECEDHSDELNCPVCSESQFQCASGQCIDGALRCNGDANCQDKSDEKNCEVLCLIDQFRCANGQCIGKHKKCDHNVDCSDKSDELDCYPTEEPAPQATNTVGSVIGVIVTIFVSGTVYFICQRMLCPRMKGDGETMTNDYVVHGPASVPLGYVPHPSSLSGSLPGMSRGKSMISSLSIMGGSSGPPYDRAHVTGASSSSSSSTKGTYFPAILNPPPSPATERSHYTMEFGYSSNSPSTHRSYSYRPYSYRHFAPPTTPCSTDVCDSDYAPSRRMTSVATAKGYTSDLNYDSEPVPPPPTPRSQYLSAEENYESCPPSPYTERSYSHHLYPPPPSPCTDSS

CD44EGFP (from UniProt P16070 21-742) (receptor)
EGFP donor fluorescence lifetime: 2450 ps | FRET efficiency: 7.5%
